Reference: patent publication US20240425606A1, “ANTI-IL-11RA ANTIBODIES” (Lassen Therapeutics 1, Inc., priority 2021, published 2024)

Molecular target: T1, human IL-11Rα (human, UniProt Q14626 23-363, limits assumed)
T1 construct: Protein coated on ELISA plates and used in solution for BLI; also called hIL-11Rα; hIL-11R
T1 sequence: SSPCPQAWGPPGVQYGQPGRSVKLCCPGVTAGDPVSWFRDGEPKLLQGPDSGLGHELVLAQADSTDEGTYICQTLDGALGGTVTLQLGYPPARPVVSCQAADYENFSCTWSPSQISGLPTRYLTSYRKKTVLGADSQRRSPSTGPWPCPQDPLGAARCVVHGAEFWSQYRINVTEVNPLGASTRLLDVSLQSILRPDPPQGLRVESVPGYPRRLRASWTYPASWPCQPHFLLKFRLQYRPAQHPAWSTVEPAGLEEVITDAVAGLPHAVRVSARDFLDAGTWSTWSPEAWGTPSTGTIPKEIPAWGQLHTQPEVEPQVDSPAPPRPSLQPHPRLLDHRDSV
Experiment: competitive ELISA, IL-11R coated on plate; competitor: biotinylated 8E2 (0.1 µg/mL); competing against 8E2-bio
Description: Relative binding activity of the antibodies was tested by competitive ELISA using biotinylated mAbs 8E2 or TS7. Antibodies 8E2 and TS7 were biotinylated using sulfo-NHS Biotin (Thermo Fisher) per the manufacturer's instructions. IL-11R was coated onto ELISA plates (Nunc, MaxiSorp) at 2 μg/mL in PBS, and plates were blocked with 2% BSA in PBS. After washing the plate with water, antibodies to be tested were titrated across the plate in a final volume of 90 μL followed by addition of 10 μL of biotinylated 8E2 or biotinylated TS7, as indicated in Table E1 (0.1 μg/mL final concentration) to each well. Plates were incubated for 2 hours on a plate-shaker, followed by washing and addition of 100 μL/well of streptavidin-HRP (Jackson ImmunoResearch, 1/1000 dilution). After a further 1 hour incubation, plates were washed, developed with Ultra-TMB HRP substrate (Thermo Fisher), and stopped by the addition of 50 μL/well of 2 M sulfuric acid. Plates were read at 450 nm on an iD5 plate reader (Molecular Devices).

B1: mAb1 (antibody, V domains shown)
VH: EVQLLESGGGLVQPGGSLRLSCAASGFTFSWYSMTWVRQAPGKGLEWVSSIVPSGGHTQYADSVKGRFTISRDNSKNTLYLQMNSLRAEDTAVYYCAKGPDWGSFDLWGRGTLVTVSS
VL: DIQMTQSPSSLSASVGDRVTITCQASQDINNYLNWYQQKPGKAPKLLIYDASNLQTGVPSRFSGSGSGTDFTFTISSLQPEDIATYYCQQHESQSPTFGPGTKVDIK
notes: Expressed as human IgG4 (S228P EU)
- IC50: > 10 µg/mL
